T1: fructosyl valine-leucine-serine
T1 chain: VLS

T2: fructosyl valine-leucine
T2 chain: VL

T3: fructosyl valine-histidine
T3 chain: VH

T4: fructosyl valine-histidine-leucine
T4 chain: VHL


Experiments:
[1] = molecular target: T1, fructosyl valine-leucine-serine
fructosyl valine-leucine = molecular target: T2, fructosyl valine-leucine
[2] = molecular target: T3, fructosyl valine-histidine
[3] = molecular target: T4, fructosyl valine-histidine-leucine

Row | Protein | Relative activity (%) [1] [%] | Relative activity (%) (fructosyl valine-leucine) | Relative activity (%) [2] [%] | Relative activity (%) [3] [%]
1 | fructosylamine oxidase FAO-Q2 from Fusarium proliferatum GL2-1 strain (protein) MARTVAPLNKDSGILIVGGGTWGCSTALHLARRGYTNVTVLDVNRIPSPISAGHDVNKLSNRLGTSDSKGDDEDSIWKALTYAAAQGWLHDPIFQPFCHNTGAVMAGSTPKSIKQLVEDEIGDDIDQYTPLNTAEDFRRTMPERILTGDFLGWKGFYKPRGSGWVHARKAMKAAFEESQRLGVKFITGSPEGKVESLVFEAGDVKGAKTADGKEHRADRTILSAGASAEFSLDFENQIRPTAWTLGHIQMTAEETKLYKELPPLFNINQGFFMEPDEDLHQLKMCDEHPGYCNWVDKPGSKYPQSIPFAKYQVPIEAERRMKQFLKDIMPQLADRPLVHARICWCADTQDRMFLITYHPRHPSLVIASGDCGTGYKHITSIGKFISDCMEGTLEERFAKFWRWRPEKFTEFWGKDPLDRFGADDKIMDLPKSDAEGWTDIQNDK | 3.3 | 0.6 | 2.4 | 0.6
2 | fructosylamine oxidase FAO-Q1 from Fusarium proliferatum GL2-1 strain (protein) MAGPPSSILIVGSGVFGLGTAWALAKRSHFSNTSITVVDDCAGQFPPEDAASVDSSRIVRADYSDPYYAALAAEAQKEWRKQGDHEVGGQGRYSESGFVLCASETPEDFKLKKSGMDYTKESAKNVELIAKETGLPVDKIQKLESTKALQEFLGTDGYPGDWGYLNGNSGWADAGEGMKWLYKQAQATGRIHFVNGKVTELVTEGDRVIGAKLSDSKILKADVVMVAAGAWSGSLVDLRGRTEATGHAVAYMDITPEEQKRLDNFPVVLNLSTGLFLIPPRNNVLKAARHTFGYINPVKINNALPPSPNDKREPFIASQPYTSRNDSSNPLTVEADKDLRRALTDLCPIRGLETRPWKEARICWYSDTRDGEWLIDYHPGWKGLFVATGDSGHGFKFLPNLGEKIVDVMQGQGGKLGEKWRWKEIQNDGVGRETNGVYTGLVTEDGSRGGRPLVLCDELEKGRALIGNTKAKL | – | 1.1 | – | –
